This is an account of results in publication PMC9537944, “eIF4G1 N-terminal intrinsically disordered domain is a multi-docking station for RNA, Pab1, Pub1, and self-assembly” (Frontiers in Molecular Biosciences, 2022).

Data set [1] deals with the molecule itself. Kind of data set: NMR paramagnetic relaxation enhancement (intermolecular PRE); 15N-labelled wild-type eIF4G1 1-249 mixed 1:1 with TEMPO spin-labelled eIF4G1 1-249 Q109C at natural isotopic abundance; intensity ratios of 1H-15N HSQC peaks, oxidised against ascorbate-reduced label; 25 mM potassium phosphate pH 6.5, 25 mM NaCl, 1 mM DTT.
Another data set has as its target T1, eIF4G1 1-82 (Saccharomyces cerevisiae, UniProt P39935 1-82).
T1 sequence: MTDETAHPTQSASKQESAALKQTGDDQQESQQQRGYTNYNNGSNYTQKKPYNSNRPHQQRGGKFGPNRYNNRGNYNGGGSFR
Kind of data set: NMR (1H-15N HSQC titration); shifts centered at R34, R55, G65; new Arg side-chain NeHe signal; NMR: 25 mM potassium phosphate pH 6.5, 25 or 150 mM NaCl, 1 mM DTT, 10% D2O, 25 C, 800 MHz (general NMR conditions; not stated specifically for RNA titrations). Particulars: protein: recombinant; tags: N-terminal gs left after TEV cleavage of TrxA-6xHis; single strand.

B1: eIF4G1_(1-249), N-terminal intrinsically disordered region of eIF4G1 (domain or fragment, Saccharomyces cerevisiae, UniProt P39935 1-249, looked up)
chain: MTDETAHPTQSASKQESAALKQTGDDQQESQQQRGYTNYNNGSNYTQKKPYNSNRPHQQRGGKFGPNRYNNRGNYNGGGSFRGGHMGANSSNVPWTGYYNNYPVYYQPQQMAAAGSAPANPIPVEEKSPVPTKIEITTKSGEHLDLKEQHKAKLQSQERSTVSPQPESKLKETSDSTSTSTPTPTPSTNDSKASSEENISEAEKTRRNFIEQVKLRKAALEKKRKEQLEGSSGNNNIPMKTTPENVEEK
notes: 15N-labelled where it was the observed partner; Minor isoaspartate forms (12%-14%) are reported at positions 41 and 76; In the intermolecular PRE experiment the second copy was the Q109C mutant carrying a TEMPO spin label; also called eIF4G1 IDR; not shown: thioredoxin A, N-terminal, cleaved; 6xHis, internal (between thioredoxin A and the TEV site), cleaved
For the molecule B1, the binding result in data set [1] is given as “binds”.

AAAAAAAAAAAAAA (ssRNA) [A14]: in the data set with eIF4G1 1-82, the binding result is “binds”.
